According to patent US20060122119A1, “Peptides for use in antitumor immunotherapy” (Institut Nat'l De La Sante Et De La Recherche Med., priority 2002, published 2006):

Key:
HLA-B*3501 (human) [1] = conditions: remark: other sources report otherwise
HLA-B*3501 (human) [2] = conditions: remark: other sources report otherwise; remark: listed apart in the source

- Stability (half-life of the peptide on HLA-B*35) (HLA-B*3501 (human) [1]): > 6 h
- RA (relative affinity) (HLA-B*3501 (human) [2]): 2.3
Binder: EVDPIGHLY [MAGE-A3 peptide 168-176 …]
